The text below walks through data of PMC4646180.

In the test the target is Ub-AMC (ubiquitin with 7-amino-4-methylcoumarin at its C terminus) (UniProt P0CG48).
Substance “MHV PLP2+ D1772R (from UniProt P0C6V0 1525-1911) (enzyme)” displayed a Relative activity of WT, 500 nM Ub-AMC of 1.1%.
To “MHV PLP2+ D1807R (from UniProt P0C6V0 1525-1911) (enzyme)” belongs 0.5%.
Then “MHV PLP2+ F1812A (from UniProt P0C6V0 1525-1911) (enzyme)”, with 3.3%.
To “MHV PLP2+ Y1824A (from UniProt P0C6V0 1525-1911) (enzyme)” belongs 3%.
On to “MHV PLP2+ Y1824F (from UniProt P0C6V0 1525-1911) (enzyme)”, for which the Relative activity of WT, 500 nM Ub-AMC came out at 70.3%.
